Measured values reported in US20220106391A1 (ZOETIS SERVICES, published 2022).

T1: canine beta-NGF (cNGF) (canine, UniProt Q29074 110-229 (pig entry))
T1 chain: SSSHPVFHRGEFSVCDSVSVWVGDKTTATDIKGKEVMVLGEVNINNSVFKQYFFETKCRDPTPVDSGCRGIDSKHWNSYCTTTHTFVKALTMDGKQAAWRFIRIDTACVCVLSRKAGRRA


Experiments:
canine beta-NGF (cNGF) [1] = target: T1, canine beta-NGF (cNGF); assay: cell-based or functional assay
canine beta-NGF (cNGF) [2] = target: T1, canine beta-NGF (cNGF); assay: SPR (Biacore)
canine beta-NGF (cNGF) [3] = target: T1, canine beta-NGF (cNGF); assay: cell-based or functional assay

| Binder | Average Max % Inhib. (pERK 1/2, CHO cells expressing human TrkA) (canine beta-NGF (cNGF) [1]) [%] | IC50 (pERK 1/2, CHO cells expressing human TrkA) (canine beta-NGF (cNGF) [1]) [nM] | Kd (canine beta-NGF (cNGF) [2]) [nM] | IC50 [nM] (TrkA cell based assay) (canine beta-NGF (cNGF) [3]) |
| --- | --- | --- | --- | --- |
| 15H02-02E01 (antibody, IgG1, V domains shown) VH: EVQLEQSGPGLVAPSQSLSITCTVSGFSLTGYGVNWVRQPPGKGLEWLGMIWGDGSTDYNSALKSRLSISKDNSKSQVFLKMNSLQTDDTARYYCARDGYYYGTTWYFDVWGAGTTVTVSS VL: DIVLTQSTSSLSASLGDRVTISCRASQDISNYLNWYQQKPDGTIKLLIYYTSRLHSGVPSRFSGSGSGTDYSLTISNLEQEDIATYFCQQGSTLPRTFGGGT | 88.2 | 18.8 |  |  |
| 01B12 Chimera (antibody, V domains shown, Mouse variable domains on canine IgG constant regions; 184 and 160; also called Chim-01B12) VH: QVQLKESGPGLVAPSQSLSITCTVSGFSLTGYGVNWVRQPPGKGLEWLGMIWGDGSTDYNSALKSRLSISKDNSKSQVFLKMNSLQTDDTARYYCARDGYYYGTTWYFDVWGAGTTVTV VL: DIQMTQTTSSLSASLGDRVTISCRASQDISNYLNWYQQKPDGTIKLLIYYTSRLHSGVPSRFSGSGSGTDYSLTISNLEQEDIATYFCQQGSTLPRTFGGGT |  |  | 1.18 | 1.02 |
| 20D11-02E10 (antibody, IgG1, V domains shown) VH: EVQLEESGPGLVAPSQSLSITCTVSGFSLTGYGVNWVRQPPGKGLEWLGMIWGDGSTDYNSALKSRLSISKDNSKSQVFLKMNSLQTDDTARYYCARDGYYYGTTWYFDVWGAGTTVTVSS VL: DIVITQTPLSLPVSLGDQASISCRSSQSIVHINRHTYLGWYLQKPGQSLKLLIYGVSNRFSGVPDRFSGSGSGTDFTLKISRVEAEDMGVYYCFQGTHVPFTFGSGT | 78.1 | 5.5 |  |  |
| 02B04-02A08 (antibody, V domains shown) VH: EVKLEESGPGLVAPSQSLSITCTVSGFSLTGYGVNWVRQPPGKGLEWLGMIWGDGSTDYNSALKSRLNISKDNSKSQVFLKMDSLQTDDTARYYCARGGYDYDVPFFDYWGQGTTLTVSS VL: DIVMTQTTSSLSASLGDRVTISCRASQDISNYLNWYQQKPDGTVKLLIYYTSRLHSGVPSRFSGSGSGTDYSLTISNLEQEDIATYFCQQGNMFPYTLGGGT | 82.2 | 4 |  |  |
| 30E01-02A11 (antibody, IgG1, V domains shown) VH: QVKLEESGPGLVAPSQSLSITCTVSGFSLTGYGVNWVRQPPGKGLEWLGMIWGDGSTDYNSALKSRLSISKDNSKSQVFLKMNSLQTDDTARYYCARDGYYYGTTWYFDVWGAGTTVTVSS VL: DIVLTQTTSSLSASLGDRVTISCRASQDISNYLNWYQQKPDGTIKLLIYYTSRLHSGVPSRFSGSGSGTDYSLTISNLEQEDIATYFCQQGSTLPRTFGGGT | 72.4 | 9.8 |  |  |
| 26C08-02F06 (antibody, IgG1, V domains shown) VH: EVKLEESGPGLVAPSQSLSITCTVSGFSLTGYGVNWVRQPPGKGLEWLGMIWGDGSTDYNSALKSRLSISKDNSKSQVFLKMNSLQTDDTARYYCARGGYDYDVSFFDYWGQGTTLTVSS VL: DIVLTQTTSSLSASLGDRVTISCRASQDISNYLNWYQQKPDGTVKLLIYYTSRFHSGVPSRFSGSGSGTDYSLTISNLEHEDIATYFCQQGNTLPYTFGGGT | 57.4 | 7.1 |  |  |
| 01B12-02B08 (antibody, IgG1, V domains shown) VH: EVKLQESGPGLVAPSQSLSITCTVSGFSLTGYGVNWVRQPPGKGLEWLGMIWGDGSTDYNSALKSRLSISKDNSKSQVFLKMNSLQTDDTARYYCARDGYYYGTTWYFDVWGAGTTVTVSS VL: DIVMTQSTSSLSASLGDRVTISCRASQDISNYLNWYQQKPDGTIKLLIYYTSRLHSGVPSRFSGSGSGTDYSLTISNLEQEDIATYFCQQGSTLPRTFGGGT | 87.1 | 4.7 |  |  |
| 31F05-02B03 (antibody, IgG1, V domains shown) VH: EVQLQQSGPGLVAPSQSLSITCTVSGFSLTGYGVNWVRQPPGKGLEWLGMIWGDGSTDYNSALKSRLSISKDNSKSQVFLKMNSLQTDDTARYYCARDGYYYGTTWYFDVWGAGTTVTVSS VL: DIQMTQTTSSLSASLGDRVTISCRASQDISNYLNWYQQKPDGTIKLLIYYTSRLHSGVPSRFSGSGSGTDYSLTISNLEQEDIATYFCQQGSTLPRTFGGGT | 86.2 | 4.1 |  |  |
| H3AQC23L5A (antibody, V domains shown, Caninized IgG) VH: EVQLVESGGDLARPGGSLKLSCVVSGFTLTQYGINWVRQAPGKGLQWVTVIWATGATDYNSALKSRFTVSRDNAMNTVYLQMNSLRVEDTAVYYCARDGWWYATSWYFDVWGQGTLVTVSS VL: DIVMTQTPLSLSVSPGEPASISCKASQDINHYLNWFRQKPDGTVKLLIYYTSSLHSGVPSRFSGSGSGTDFTLRISRVEADDAGVYYCQQGDHFPRTFGQGT |  |  | 0.089 | 2.32 |
| H3AQC23L2AL3 (antibody, V domains shown) VH: EVQLVESGGDLARPGGSLKLSCVVSGFTLTQYGINWVRQAPGKGLQWVTVIWATGATDYNSALKSRFTVSRDNAMNTVYLQMNSLRVEDTAVYYCARDGWWYATSWYFDVWGQGTLVTVSS VL: DIVMTQTPLSLSVSPGEPASISCRASQSISNNLNWFRQKPDGTVKLLIYYISSFHSGVPSRFSGSGSGTDFTLRISRVEADDAGVYYCQQGDHFPYTFGQGT |  |  |  | 2.57 |
| H3A02B4VL1 (antibody, V domains shown, Caninized IgG) VH: EVQLVESGGDLARPGGSLKLSCVVSGFTLTQYGINWVRQAPGKGLQWVTVIWATGATDYNSALKSRFTVSRDNAMNTVYLQMNSLRVEDTAVYYCARDGWWYATSWYFDVWGQGTLVTVSS VL: EIVMTQSPASLSLSQEEKVTITCRASQDISNYLNWYQQKPGQAPKLLIYYTSRLHSGVPSRFSGSGSGTDFSFTISSLEPEDVAVYYCQQGNMFPYTFGGGT |  |  | 0.16 | 1.4 |
| H3AQC23L2AL1 (antibody, V domains shown) VH: EVQLVESGGDLARPGGSLKLSCVVSGFTLTQYGINWVRQAPGKGLQWVTVIWATGATDYNSALKSRFTVSRDNAMNTVYLQMNSLRVEDTAVYYCARDGWWYATSWYFDVWGQGTLVTVSS VL: DIVMTQTPLSLSVSPGEPASISCKASQSINHYLNWFRQKPDGTVKLLIYYISSFHSGVPSRFSGSGSGTDFTLRISRVEADDAGVYYCQQSHTLPYTFGQGT |  |  |  | 4.4 |
| H3AQC23L6A (antibody, V domains shown) VH: EVQLVESGGDLARPGGSLKLSCVVSGFTLTQYGINWVRQAPGKGLQWVTVIWATGATDYNSALKSRFTVSRDNAMNTVYLQMNSLRVEDTAVYYCARDGWWYATSWYFDVWGQGTLVTVSS VL: DIVMTQTPLSLSVSPGEPASISCKASQDINHYLNWFRQKPDGTVKLLIYYVTSLHAGVPSRFSGSGSGTDFTLRISRVEADDAGVYYCQQGDHFPRTFGQGT |  |  |  | 16.9 |
| H3AQC2301B12L5AL2 (antibody, V domains shown, Caninized IgG) VH: EVQLVESGGDLARPGGSLKLSCVVSGFTLTQYGINWVRQAPGKGLQWVTVIWATGATDYNSALKSRFTVSRDNAMNTVYLQMNSLRVEDTAVYYCARDGWWYATSWYFDVWGQGTLVTVSS VL: DIVMTQTPLSLSVSPGEPASISCRASQDISNYLNWFRQKPDGTVKLLIYYTSSLHSGVPSRFSGSGSGTDFTLRISRVEADDAGVYYCQQGSTLPRTFGQGT |  |  | 12.5 | 9.7 |
| H3A02B4L1AL1 (antibody, V domains shown, Caninized IgG) VH: EVQLVESGGDLARPGGSLKLSCVVSGFTLTQYGINWVRQAPGKGLQWVTVIWATGATDYNSALKSRFTVSRDNAMNTVYLQMNSLRVEDTAVYYCARDGWWYATSWYFDVWGQGTLVTVSS VL: EIVMTQSPASLSLSQEEKVTITCKASQDINHYLNWYQQKPGQAPKLLIYYTSRLHSGVPSRFSGSGSGTDFSFTISSLEPEDVAVYYCQQGNMFPYTFGGGT |  |  | 2 | 1.56 |
| H3AQC2301B12L6AL2 (antibody, V domains shown) VH: EVQLVESGGDLARPGGSLKLSCVVSGFTLTQYGINWVRQAPGKGLQWVTVIWATGATDYNSALKSRFTVSRDNAMNTVYLQMNSLRVEDTAVYYCARDGWWYATSWYFDVWGQGTLVTVSS VL: DIVMTQTPLSLSVSPGEPASISCRASQDISNYLNWFRQKPDGTVKLLIYYVTSLHAGVPSRFSGSGSGTDFTLRISRVEADDAGVYYCQQGSTLPRTFGQGT |  |  |  | 10 |
| H3AQC2301B12LC (antibody, V domains shown, Caninized IgG, light chain QC2301B12VK) VH: EVQLVESGGDLARPGGSLKLSCVVSGFTLTQYGINWVRQAPGKGLQWVTVIWATGATDYNSALKSRFTVSRDNAMNTVYLQMNSLRVEDTAVYYCARDGWWYATSWYFDVWGQGTLVTVSS VL: DIVMTQTPLSLSVSPGEPASISCRASQDISNYLNWFRQKPDGTVKLLIYYTSRLHSGVPSRFSGSGSGTDFTLRISRVEADDAGVYYCQQGSTLPRTFGQGT |  |  | 1.13 | 0.8 |
| H3AQC2301B12L2AL1 (antibody, V domains shown, Caninized IgG) VH: EVQLVESGGDLARPGGSLKLSCVVSGFTLTQYGINWVRQAPGKGLQWVTVIWATGATDYNSALKSRFTVSRDNAMNTVYLQMNSLRVEDTAVYYCARDGWWYATSWYFDVWGQGTLVTVSS VL: DIVMTQTPLSLSVSPGEPASISCKASQSINHYLNWFRQKPDGTVKLLIYYTSRLHSGVPSRFSGSGSGTDFTLRISRVEADDAGVYYCQQGSTLPRTFGQGT |  |  | 0.435 | 0.99 |
| H3AQC2301B12L1AL1 (antibody, V domains shown, Caninized IgG) VH: EVQLVESGGDLARPGGSLKLSCVVSGFTLTQYGINWVRQAPGKGLQWVTVIWATGATDYNSALKSRFTVSRDNAMNTVYLQMNSLRVEDTAVYYCARDGWWYATSWYFDVWGQGTLVTVSS VL: DIVMTQTPLSLSVSPGEPASISCKASQSINHYLNWFRQKPDGTVKLLIYYTSRLHSGVPSRFSGSGSGTDFTLRISRVEADDAGVYYCQQGSTLPRTFGQGT |  |  | 1.07 | 0.65 |
| 16G01-02F03 (antibody, IgG2a, V domains shown) VH: EVQLQESGAELVKPGASVKLSCKASGYTFTNYWMHWVKQRPGQGLEWIGHIDPSDGETHYNQKFKDKATLTVDKSSSTAYMQLTGLTSEDSAVYYCARFLPDYWGQGTSVTVSS VL: DIVLTQTPAIMSASPGEKVTMTCRASSSVSSIYLHWYQQKPGSSPKLWIYSTSNLASGVPARFSGSGSGTSYSLTVSSVEAEDAATYYCQLYDNSPLTFGAGT | 27.7 |  |  |  |
